From patent US20050203012A1

Legend:
[1] = target: human PTH-1 receptor (human) (UniProt Q03431); test: radioligand binding on HKRK B7 cells, no competitor, 2-8° C. for 6 hr
[2] = target: human PTH-1 receptor (human) (UniProt Q03431); test: cell-based or functional assay
[3] = target: human PTH-1 receptor (human) (UniProt Q03431); test: competition with ^125I-[Nle^8,21, Tyr^34]rat PTH-(1-34) on HKRK B7 cells

Sequence of human PTH-1 receptor (human) (Q03431 27-593): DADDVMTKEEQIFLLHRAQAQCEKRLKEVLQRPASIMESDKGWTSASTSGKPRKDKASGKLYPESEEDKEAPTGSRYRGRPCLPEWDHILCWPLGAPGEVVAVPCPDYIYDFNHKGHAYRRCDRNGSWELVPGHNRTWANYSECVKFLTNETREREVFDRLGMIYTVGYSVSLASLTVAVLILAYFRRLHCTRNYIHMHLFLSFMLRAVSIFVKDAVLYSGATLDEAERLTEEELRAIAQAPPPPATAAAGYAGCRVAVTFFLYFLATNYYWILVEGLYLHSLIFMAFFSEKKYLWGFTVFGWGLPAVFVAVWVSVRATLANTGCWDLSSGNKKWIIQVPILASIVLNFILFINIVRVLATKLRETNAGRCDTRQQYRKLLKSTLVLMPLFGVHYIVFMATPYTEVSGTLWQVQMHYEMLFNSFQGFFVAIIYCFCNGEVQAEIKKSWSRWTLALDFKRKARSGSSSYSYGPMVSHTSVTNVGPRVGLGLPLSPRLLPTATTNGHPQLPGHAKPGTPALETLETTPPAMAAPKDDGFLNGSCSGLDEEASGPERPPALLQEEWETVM

Substance: ^125I-[Nle^8,21, Tyr^34]rat PTH-(1-34) (from UniProt P04089 32-65) (peptide)
- cell-associated radioactivity (binding), basal [1]: 25500 cpm/well

Substance: hPTH-(1-34) (from UniProt P01270 32-65) (peptide)
- Cyclic AMP accumulation (% Maximum) at 0.01 nM [2]: 1.7 % Maximum
- Cyclic AMP accumulation (% Maximum) at 0.1 nM [2]: 14 % Maximum
- Cyclic AMP accumulation (% Maximum) at 1 nM [2]: 45 % Maximum
- Cyclic AMP accumulation (% Maximum) at 10 nM [2]: 93 % Maximum
- Cyclic AMP accumulation (% Maximum) at 100 nM [2]: 96 % Maximum
- Cyclic AMP accumulation (% Maximum) at 1000 nM [2]: 100 % Maximum
- EC50 of PLC activation [2]: 0.03 µM
- IP3 Formation (% Maximum) at 1000 nM [2]: 87 % Maximum
- IP3 Formation (% Maximum) at 10000 nM [2]: 100 % Maximum
- IP3 formation at maximal concentrations of hPTH-(1-34) [2]: 1910 cpm/well
- PLC Activity (% Basal) at 1000 nM [2]: 854 % Basal
- cAMP accumulation at maximal concentrations of hPTH-(1-34) (pmoles/well/15 min) [2]: 207
- cell-associated radioactivity (binding) in the presence of maximal concentrations of hPTH-(1-34) [3]: 956 cpm/well

Substance: desamino-[Gly^1]hPTH-(1-34) (from UniProt P01270 32-65) (peptide)
- PLC Activity (% Basal) at 1000 nM [2]: 108 % Basal

Substance: hPTHrP(1-36) (from UniProt P12272 37-72) (peptide)
- PLC activation at 1000 nM peptide (percent of basal) [2]: 178

Substance: desamino-hPTHrP(1-36) (from UniProt P12272 37-72) (peptide)
- PLC activation at 1000 nM peptide (percent of basal) [2]: 101

Substance: hPTH-(2-34) (from UniProt P01270 33-65) (peptide)
- PLC Activity (% Basal) at 1000 nM [2]: 88 % Basal

Substance: [Tyr^0]hPTH-(1-34) (from UniProt P01270 32-65) (peptide)
- PLC activity at 1000 nM peptide (percent of basal) [2]: 105

Substance: desamino-[Ala^1]hPTH-(1-34) (from UniProt P01270 32-65) (peptide)
- PLC Activity (% Basal) at 1000 nM [2]: 106 % Basal
